US20260167699A1 (Chugai, published 2026)
Changes are numbered by the printed parent chain.

B1: GpH7-A5/GpH7-B3 variant S239_14T/GpL16-k0 (antibody, human IgG1, kappa)
heavy 1: not shown
heavy 2: not shown
light: DIVMTQSPLSLPVTPGEPASISCQASESLVHSNRNTYLHWYLQKPGQSPQLLIYKVSNRFSGVPDRFSGSGSGTDFTLKISRVEAEDVGVYYCSQNTHVPPTFGQGTKVEIERTVAAPSVFIFPPSDEQLKSGTASVVCLLNNFYPREAKVQWKVDNALQSGNSQESVTEQDSKDSTYSLSSTLTLSKADYEKHKVYACEVTHQGLSSPVTKSFNRGEC
notes: heterodimerized IgG1, one H chain mutated; also called He Ab
B2: GpH7-A5/GpH7-B3 variant Q295_12R/GpL16-k0 (antibody, human IgG1, kappa)
heavy 1: not shown
heavy 2: not shown
light: B1 light
notes: heterodimerized IgG1, one H chain mutated; also called He Ab; copies: 1 + 1 + 2
B3: GpH7-A5/GpH7-B3 variant V266_08L/GpL16-k0 (antibody, human IgG1, kappa)
heavy 1: not shown
heavy 2: not shown
light: B1 light
notes: as for B1
B4: GpH7-A5/GpH7-B3 variant S267_02A/GpL16-k0 (antibody, human IgG1, kappa)
heavy 1: not shown
heavy 2: not shown
light: B1 light
notes: as for B1
B5: GpH7-A5/GpH7-B3 variant S239_19Q/GpL16-k0 (antibody, human IgG1, kappa)
heavy 1: not shown
heavy 2: not shown
light: B1 light
notes: as for B1
B6: GpH7-A5/GpH7-B3 variant V266_07I/GpL16-k0 (antibody, human IgG1, kappa)
heavy 1: not shown
heavy 2: not shown
light: B1 light
notes: as for B1
B7: GpH7-A5/GpH7-B3 variant S267_01G/GpL16-k0 (antibody, human IgG1, kappa)
heavy 1: not shown
heavy 2: not shown
light: B1 light
notes: as for B1
B8: GpH7-A5/GpH7-B3 variant S239_18N/GpL16-k0 (antibody, human IgG1, kappa)
heavy 1: not shown
heavy 2: not shown
light: B1 light
notes: as for B1
B9: GpH7-A5/GpH7-B3 variant P271_07I/GpL16-k0 (antibody, human IgG1, kappa)
heavy 1: not shown
heavy 2: not shown
light: B1 light
notes: as for B2
B10: GpH7-A5/GpH7-B3 variant S267_09D/GpL16-k0 (antibody, human IgG1, kappa)
heavy 1: not shown
heavy 2: not shown
light: B1 light
notes: as for B1
B11: GpH7-A5/GpH7-B3 variant S267_19Q/GpL16-k0 (antibody, human IgG1, kappa)
heavy 1: not shown
heavy 2: not shown
light: B1 light
notes: as for B1
B12: GpH7-A5/GpH7-B3 variant S267_10E/GpL16-k0 (antibody, human IgG1, kappa)
heavy 1: not shown
heavy 2: not shown
light: B1 light
notes: as for B1
B13: GpH7-A5/GpH7-B3 variant P271_09D/GpL16-k0 (antibody, human IgG1, kappa)
heavy 1: not shown
heavy 2: not shown
light: B1 light
notes: as for B2
B14: GpH7-A5/GpH7-B3 variant P271_10E/GpL16-k0 (antibody, human IgG1, kappa)
heavy 1: not shown
heavy 2: not shown
light: B1 light
notes: as for B2
B15: GpH7-A5/GpH7-B3 variant P271_03V/GpL16-k0 (antibody, human IgG1, kappa)
heavy 1: not shown
heavy 2: not shown
light: B1 light
notes: as for B2
B16: GpH7-A5/GpH7-B3 variant P271_13S/GpL16-k0 (antibody, human IgG1, kappa)
heavy 1: not shown
heavy 2: not shown
light: B1 light
notes: as for B2
B17: GpH7-A5/GpH7-B3 variant P271_12R/GpL16-k0 (antibody, human IgG1, kappa)
heavy 1: not shown
heavy 2: not shown
light: B1 light
notes: as for B2
B18: GpH7-A5/GpH7-B3 variant P271_11K/GpL16-k0 (antibody, human IgG1, kappa)
heavy 1: not shown
heavy 2: not shown
light: B1 light
notes: as for B2
B19: GpH7-A5/GpH7-B3 variant P271_06M/GpL16-k0 (antibody, human IgG1, kappa)
heavy 1: not shown
heavy 2: not shown
light: B1 light
notes: as for B2
B20: GpH7-A5/GpH7-B3 variant V266_02A/GpL16-k0 (antibody, human IgG1, kappa)
heavy 1: not shown
heavy 2: not shown
light: B1 light
notes: as for B1
B21: GpH7-A5/GpH7-B3 variant P271_01G/GpL16-k0 (antibody, human IgG1, kappa)
heavy 1: not shown
heavy 2: not shown
light: B1 light
notes: as for B2
B22: GpH7-A5/GpH7-B3 variant V266_06M/GpL16-k0 (antibody, human IgG1, kappa)
heavy 1: not shown
heavy 2: not shown
light: B1 light
notes: as for B1
B23: GpH7-A5/GpH7-B3 variant P271_02A/GpL16-k0 (antibody, human IgG1, kappa)
heavy 1: not shown
heavy 2: not shown
light: B1 light
notes: as for B2
B24: GpH7-A5/GpH7-B3 variant P271_08L/GpL16-k0 (antibody, human IgG1, kappa)
heavy 1: not shown
heavy 2: not shown
light: B1 light
notes: as for B2

Key:
FcγRIa = biological target: T1, FcγRIa (human, UniProt P12314 16-292); assay: SPR (Biacore), binding relative to GpH7-A5/GpH7-B3/GpL16-k0 x100;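 further: surface plasmon resonance at 25 °C, antibody captured on a sensor chip and soluble FcγR flowed over it in HBS-EP+ running buffer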
T1 construct: extracellular domain; also called 1a
Description: (§1) The antibody of interest was analyzed for its interaction with FcγR using a BiaCore™ T100, BiaCore™ A100, or BiaCore™ 4000 surface plasmon resonance system (GE Healthcare Japan Corp.). The running buffer used was HBS-EP+ (GE Healthcare Japan Corp.). The assay temperature was set to 25° C. The sensor chips used were: a chip prepared by immobilizing antigenic peptides onto Series S Sensor Chip CM5 (GE Healthcare Japan Corp.) by the amine coupling method; a chip prepared by immobilizing antigenic peptides biotinylated in advance onto Series S Sensor Chip SA (certified) (GE Healthcare Japan Corp.) through their interaction; a chip prepared by immobilizing protein L (ACTIGEN, BioVision, Inc.) onto Series S Sensor Chip CM5 (GE Healthcare Japan Corp.); and a chip prepared by immobilizing protein A/G (Thermo Fisher Scientific K.K.) onto Series S Sensor Chip CM5 (GE Healthcare Japan Corp.). The antibody of interest was captured onto any of these chips and allowed to interact with FcγR diluted with a running buffer. The antibody captured on the chip was washed off through the reaction of 10 mM glycine-HCl (pH 1.5) to regenerate the chip, which was repetitively used.

FcγRIIa(R) = biological target: T2, FcγRIIa(R) (human, UniProt P12318 34-217); assay: as above
T2 construct: extracellular domain; also called FcγRIIa R type; 2aR
T2 sequence: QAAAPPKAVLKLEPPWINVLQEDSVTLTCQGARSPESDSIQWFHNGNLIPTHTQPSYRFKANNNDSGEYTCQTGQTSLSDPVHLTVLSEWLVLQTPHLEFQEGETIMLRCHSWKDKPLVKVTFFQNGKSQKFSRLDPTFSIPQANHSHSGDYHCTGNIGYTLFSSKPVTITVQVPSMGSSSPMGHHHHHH
Description: as §1

FcγRIIa(H) = biological target: T3, FcγRIIa(H) (human, UniProt P12318 34-217); assay: as above
T3 construct: extracellular domain; also called FcγRIIa H type; 2aH
T3 sequence: T2 sequence with R134H
Description: as §1

FcγRIIb = biological target: T4, FcγRIIb (human, UniProt P31994 43-217); assay: as above
T4 construct: extracellular domain; also called 2b
T4 sequence: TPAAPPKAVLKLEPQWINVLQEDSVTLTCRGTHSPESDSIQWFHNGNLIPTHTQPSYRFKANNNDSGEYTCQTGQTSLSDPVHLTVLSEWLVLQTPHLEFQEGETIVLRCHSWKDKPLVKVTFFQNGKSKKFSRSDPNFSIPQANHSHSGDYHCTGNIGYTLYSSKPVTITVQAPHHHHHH
Description: as §1

[1] = biological target: T5, FcγRIa extracellular domain, C-terminal His tag (human, UniProt P12314 16-292); assay: SPR; He Ab vs HeCon Ab (GpH7-A5/GpH7-B3/GpL16-k0)=100;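 further: surface plasmon resonance at 25 °C with the test antibody captured on a sensor chip via antigenic peptide, protein L or protein A/G and FcγR flowed over as analyte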
T5 construct: extracellular domain; also called 1a
Description: as §1

[2] = biological target: T6, FcγRIIa(R) extracellular domain, C-terminal His tag (human, UniProt P12318 34-217); assay: as above
T6 construct: extracellular domain; also called 2aR
T6 sequence: T2 sequence
Description: as §1

[3] = biological target: T7, FcγRIIa(H) extracellular domain, C-terminal His tag (human, UniProt P12318 34-217); assay: as above
T7 construct: extracellular domain; also called 2aH
T7 sequence: T2 sequence with R134H
Description: as §1

[4] = biological target: T8, FcγRIIb extracellular domain, C-terminal His tag (human, UniProt P31994 43-217); assay: as above
T8 construct: extracellular domain; also called 2b
T8 sequence: T4 sequence
Description: as §1

[5] = biological target: T9, FcγRIIIa extracellular domain, C-terminal His tag (human, UniProt P08637 17-208); assay: as above
T9 construct: extracellular domain; also called 3a
T9 sequence (P08637 other isoform, or with tags, fused parts or gaps): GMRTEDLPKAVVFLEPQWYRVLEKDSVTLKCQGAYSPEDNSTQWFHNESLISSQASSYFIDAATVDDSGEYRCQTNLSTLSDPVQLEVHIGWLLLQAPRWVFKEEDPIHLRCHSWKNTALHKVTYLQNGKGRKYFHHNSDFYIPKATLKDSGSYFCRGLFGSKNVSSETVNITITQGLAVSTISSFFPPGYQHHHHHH
Description: as §1

T1 sequence (P12314 other isoform, or with tags, fused parts or gaps): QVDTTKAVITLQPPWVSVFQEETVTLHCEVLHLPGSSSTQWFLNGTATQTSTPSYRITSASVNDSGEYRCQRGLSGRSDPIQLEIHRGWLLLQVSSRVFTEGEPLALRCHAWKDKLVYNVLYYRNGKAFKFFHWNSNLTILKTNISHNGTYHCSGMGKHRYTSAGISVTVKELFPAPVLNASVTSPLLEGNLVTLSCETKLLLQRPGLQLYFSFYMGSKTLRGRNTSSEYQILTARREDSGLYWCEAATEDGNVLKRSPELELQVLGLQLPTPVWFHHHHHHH
T5 sequence (P12314 other isoform, or with tags, fused parts or gaps): as above

Binder	He/Con 1a (FcγRIa) [%]	He/Con 2aR (FcγRIIa(R)) [%]	He/Con 2aH (FcγRIIa(H)) [%]	He/Con 2b (FcγRIIb) [%]	He/Con 1a [1] [%]	He/Con 2aR [2] [%]	He/Con 2aH [3] [%]	He/Con 2b [4] [%]	He/Con 3a [5] [%]
B1	104	97.4	95.9	98.6	–	–	–	–	–
B2	–	–	–	–	98.8	82.2	96.4	73.1	73.2
B3	94.9	152	106	248	–	–	–	–	–
B4	105	167	121	256	–	–	–	–	–
B5	104	79.8	80	87.3	–	–	–	–	–
B6	96.1	129	107	160	–	–	–	–	–
B7	99.9	121	72.1	110	–	–	–	–	–
B8	104	104	91.1	121	–	–	–	–	–
B9	–	–	–	–	101	88	94.1	86.1	80.2
B10	106	186	107	326	–	–	–	–	–
B11	99.2	145	61.9	228	–	–	–	–	–
B12	102	188	103	398	–	–	–	–	–
B13	–	–	–	–	100	109	80.4	135	97.7
B14	–	–	–	–	101	102	72.4	122	98.2
B15	–	–	–	–	101	85.8	85.4	83.8	73.5
B16	–	–	–	–	101	93.5	83.3	98.2	79.8
B17	–	–	–	–	101	95.8	100	96.9	87.6
B18	–	–	–	–	101	97.3	100	101	92.5
B19	–	–	–	–	101	87.3	87.7	87	74
B20	93.8	88.8	69.7	85.1	–	–	–	–	–
B21	–	–	–	–	103	143	123	217	119
B22	96.5	161	84.8	264	–	–	–	–	–
B23	–	–	–	–	102	93.9	88.4	98.7	83.7
B24	–	–	–	–	101	103	99.4	115	74.5
